Test results from patent US20150313972A1.
Values joined by “and” are separate entries in the source; they are usually repeats but may differ in a detail not shown here. Equal entries are not always repeated.

Biological target: M6P receptors on the surface of human fibroblasts (human), P11717
Assay: cell-based or functional assay

Sequence of M6P receptors on the surface of human fibroblasts (human), P11717 (P11717 41-2491): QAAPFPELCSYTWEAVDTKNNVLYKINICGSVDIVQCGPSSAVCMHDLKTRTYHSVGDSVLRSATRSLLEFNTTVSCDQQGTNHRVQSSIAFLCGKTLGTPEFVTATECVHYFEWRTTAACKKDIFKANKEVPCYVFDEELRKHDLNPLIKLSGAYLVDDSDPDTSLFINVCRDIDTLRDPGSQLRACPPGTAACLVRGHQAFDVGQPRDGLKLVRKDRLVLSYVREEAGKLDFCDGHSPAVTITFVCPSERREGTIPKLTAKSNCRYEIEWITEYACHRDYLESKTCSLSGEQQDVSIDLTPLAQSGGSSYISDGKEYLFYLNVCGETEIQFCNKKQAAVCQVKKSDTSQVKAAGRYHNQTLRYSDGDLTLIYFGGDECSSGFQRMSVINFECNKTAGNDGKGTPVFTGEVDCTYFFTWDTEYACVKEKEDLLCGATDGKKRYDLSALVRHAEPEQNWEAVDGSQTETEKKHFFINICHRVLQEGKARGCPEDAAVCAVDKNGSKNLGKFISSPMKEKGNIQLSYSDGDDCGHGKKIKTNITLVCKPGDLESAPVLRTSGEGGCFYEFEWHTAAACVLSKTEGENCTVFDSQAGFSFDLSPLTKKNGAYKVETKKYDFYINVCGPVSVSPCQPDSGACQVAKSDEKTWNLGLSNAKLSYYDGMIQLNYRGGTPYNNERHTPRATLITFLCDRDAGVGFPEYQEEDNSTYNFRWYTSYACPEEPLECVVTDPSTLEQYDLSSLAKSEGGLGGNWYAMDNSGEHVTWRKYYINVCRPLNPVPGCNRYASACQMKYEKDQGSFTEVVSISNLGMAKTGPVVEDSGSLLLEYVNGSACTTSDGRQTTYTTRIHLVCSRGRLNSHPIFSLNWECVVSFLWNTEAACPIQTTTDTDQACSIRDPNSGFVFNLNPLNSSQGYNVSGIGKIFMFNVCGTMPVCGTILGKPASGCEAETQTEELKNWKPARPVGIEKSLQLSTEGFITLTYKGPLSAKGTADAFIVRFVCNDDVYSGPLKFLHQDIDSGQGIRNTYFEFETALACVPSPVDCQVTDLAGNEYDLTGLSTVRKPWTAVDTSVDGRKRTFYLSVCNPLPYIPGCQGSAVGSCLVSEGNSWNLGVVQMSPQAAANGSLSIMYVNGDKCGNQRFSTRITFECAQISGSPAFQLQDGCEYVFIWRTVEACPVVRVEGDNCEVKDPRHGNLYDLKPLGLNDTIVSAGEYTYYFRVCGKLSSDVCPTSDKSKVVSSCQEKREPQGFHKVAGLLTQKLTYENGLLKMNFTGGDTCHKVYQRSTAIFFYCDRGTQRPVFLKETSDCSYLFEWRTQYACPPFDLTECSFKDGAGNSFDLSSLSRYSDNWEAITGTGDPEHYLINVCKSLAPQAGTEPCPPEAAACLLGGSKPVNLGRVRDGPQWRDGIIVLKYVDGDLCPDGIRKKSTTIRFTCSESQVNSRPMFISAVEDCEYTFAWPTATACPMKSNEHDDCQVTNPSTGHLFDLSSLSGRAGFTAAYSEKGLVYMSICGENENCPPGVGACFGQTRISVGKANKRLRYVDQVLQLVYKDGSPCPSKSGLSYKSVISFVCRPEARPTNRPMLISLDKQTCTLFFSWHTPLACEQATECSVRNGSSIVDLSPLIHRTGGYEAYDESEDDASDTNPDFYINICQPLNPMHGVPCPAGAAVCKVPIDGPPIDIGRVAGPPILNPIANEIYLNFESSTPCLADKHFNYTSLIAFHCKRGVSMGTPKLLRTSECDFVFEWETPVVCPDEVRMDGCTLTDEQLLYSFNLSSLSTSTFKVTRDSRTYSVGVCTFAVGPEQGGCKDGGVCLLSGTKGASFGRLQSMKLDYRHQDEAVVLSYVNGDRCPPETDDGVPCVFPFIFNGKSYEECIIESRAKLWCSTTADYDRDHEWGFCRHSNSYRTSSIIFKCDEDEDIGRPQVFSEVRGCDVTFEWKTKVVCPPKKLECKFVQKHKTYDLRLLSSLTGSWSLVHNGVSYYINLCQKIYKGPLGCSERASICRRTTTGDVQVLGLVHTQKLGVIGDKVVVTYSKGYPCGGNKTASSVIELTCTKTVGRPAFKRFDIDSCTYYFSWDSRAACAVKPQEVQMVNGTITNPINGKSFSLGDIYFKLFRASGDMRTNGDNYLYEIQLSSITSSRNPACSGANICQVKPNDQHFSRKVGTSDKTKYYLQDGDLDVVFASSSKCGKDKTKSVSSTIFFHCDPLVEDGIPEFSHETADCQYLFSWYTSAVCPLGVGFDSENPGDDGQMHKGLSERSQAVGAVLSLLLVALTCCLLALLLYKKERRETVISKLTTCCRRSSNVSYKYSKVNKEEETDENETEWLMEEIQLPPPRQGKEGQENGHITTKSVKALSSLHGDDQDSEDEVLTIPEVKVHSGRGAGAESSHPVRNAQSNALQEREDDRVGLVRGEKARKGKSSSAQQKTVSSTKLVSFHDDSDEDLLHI

Cell Uptake: 98 | Cellular Uptake (Bioassay): 85% and 95% and 97% | Internalization: 83%
B1: purified recombinant human iduronate-2-sulfatase (I2S) produced in serum-free medium, P22304 26-550 (enzyme)
chain: SETQANSTTDALNVLLIIVDDLRPSLGCYGDKLVRSPNIDQLASHSLLFQNAFAQQAVCAPSRVSFLTGRRPDTTRLYDFNSYWRVHAGNFSTIPQYFKENGYVTMSVGKVFHPGISSNHTDDSPYSWSFPPYHPSSEKYENTKTCRGPDGELHANLLCPVDVLDVPEGTLPDKQSTEQAIQLLEKMKTSASPFFLAVGYHKPHIPFRYPKEFQKLYPLENITLAPDPEVPDGLPPVAYNPWMDIRQREDVQALNISVPYGPIPVDFQRKIRQSYFASVSYLDTQVGRLLSALDDLQLANSTIIAFTSDHGWALGEHGEWAKYSNFDVATHVPLIFYVPGRTASLPEAGEKLFPYLDPFDSASQLMEPGRQSMDLVELVSLFPTLAGLAGLQVPPRCPVPSFHVELCREGKNLLKHFRFRDLEEDPYLPGNPRELIAYSQYPRPSDIPQWNSDKPSLKDIKIMGYSIRTIDYRYTVWVGFNPDEFLANFSDIHAGELYFVDSDPLQDHNMYNDSQGGDLFQLLMP
modifications: here or on the partner: cysteine corresponding to Cys59 of mature human I2S (SEQ ID NO:1) converted to C-alpha-formylglycine (87-95% in Table 4, 94% in Table 13); glycans bearing sialic acid and mannose-6-phosphate
